PMC11960969, “Mdga2 deficiency leads to an aberrant activation of BDNF/TrkB signaling that underlies autism-relevant synaptic and behavioral changes in mice” (PLOS Biology, 2025)

System: hippocampal proteins
Test: DIA quantification proteomics, hippocampus of Mdga2+/- vs WT mice
Design: species or system mouse
Conditions: S3 Table, downregulated DEPs; for log2FC: Mdga2+/- vs WT mouse hippocampus (HET-HIP-VS-WT-HIP), SE, pvalue and adj_pvalue in own columns c3-c5; for Class: regulation class of the protein, HET-HIP-VS-WT-HIP
Method in brief: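 Hippocampi from 1.5–2-month-old male Mdga2+/− mice and WT littermates; 100 μg protein trypsin-digested, peptides high-pH fractionated. DDA-built spectral library, DIA by nano-LC–MS/MS with Spectronaut and mProphet QC. DEPs called at fold change >1.1 and p <0.05.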

Row | Molecule | log2FC | Class
1 | sp¦P28076¦PSB9_MOUSE (protein, UniProt P28076 21-219, looked up) Proteasome subunit beta type-9: TTIMAVEFDGGVVVGSDSRVSAGTAVVNRVFDKLSPLHQRIFCALSGSAADAQAIADMAAYQLELHGLELEEPPLVLAAANVVKNISYKYREDLLAHLIVAGWDQREGGQVYGTMGGMLIRQPFTIGGSGSSYIYGYVDAAYKPGMTPEECRRFTTNAITLAMNRDGSSGGVIYLVTITAAGVDHRVILGDELPKFYDE | -1.875 | Down
2 | sp¦Q3TVI8¦PBIP1_MOUSE (protein, UniProt Q3TVI8 1-727, looked up) Pre-B-cell leukemia …: MASCPDSDNSWVLAGSENLPVETLGPEPRMDPESEGASQALRDSSKADGKELAGTLDGEEKLFQTESSQRETAVLTESAAKGTLGADGHGTEAPGDTVVQEDSQETPVATSLGPDTQDLESEIHPQNLPSSPRAVWKEHRCSSSDDDTDVDVEGLRRRRGREPSSSQPVVPVDVEDQAKGEGIGGELGISLNMCFLGALVLLGLGILLFSGTLLEPETGPMEEAELQVFPETGPETELVETLGNRQDEIEHLQASSVPPDSVPSLQSMGFLLDKLAKENQDIRLLQAQLQAQKEELQSLLHQPKGLEEENARLREALQQGKTSHQALESELQQLRARLQGLEANCVRGVDGVCLNWGGDPQDGKATKEQGHKGQEPDPSLLEQHKQLEAEAKALRQELQRQWQLLGSVHWDLQRGLRDAGRGAPAHPGLAELGHMLAQTLQDLENQGINTGRSPNDSEAWHQKKPHTQSPREWGGKEKWRGGQRDQKAEHWKPRKEESGQERQRSWRDEGREHTGRWREDRLRADESGSRKDSKRQDPKVHPRKDGNSHSVERQKHSWGKDNSPDALSSWEELLRRKYRPPQGCSGVADCARQEGLALFGVELAPVRQQELASVLREYLSRLPWAGQLTKQLPLSPAYFGEDGIFRHDRLRFRDFVDALEDSLEEVALKQTGDDDEVDDFEDFVFGHFFGDKALKKRSRKKEKHSWNPRVVGPREEHSRHPHHYHQG | -1.692 | Down
3 | sp¦Q8BUB4¦WDFY2_MOUSE (protein, UniProt Q8BUB4 1-400, looked up) WD repeat and FYVE …: MAAEIQPQPLTRKPILLQRVEGSQEVVNMAVIVPKEEGVISVSEDRTVRVWLKRDSGQYWPSIYHAMPSPCSCMSFNPETRRLSIGLDNGTISEFILSEDYNKMTPVKNYQAHQSRVTMVLFVLELEWVLSTGQDKQFAWHCSESGQRLGGYRTSAVASGLQFDVETRHVFIGDHSGQVTILKLEQENCTLLTSFRGHTGGVTALCWDPVQRVLFSGSSDHSVIMWDIGGRKGTAIELQGHNDKVQALSYAQHTRQLISCGGDGGIVVWNMDVERQETPEWLDSDSCQKCDQPFFWNFKQMWDSKKIGLRQHHCRKCGKAVCGKCSSKRSSIPLMGFEFEVRVCDSCHEAITDEERAPTATFHDSKHNIVHVHFDATRGWLLTSGTDKVIKLWDMTPVVS | -1.823 | Down
4 | sp¦P50172¦DHI1_MOUSE (protein, UniProt P50172 1-292, looked up) 11-beta-hydroxysteroid …: MAVMKNYLLPILVLFLAYYYYSTNEEFRPEMLQGKKVIVTGASKGIGREMAYHLSKMGAHVVLTARSEEGLQKVVSRCLELGAASAHYIAGTMEDMTFAEQFIVKAGKLMGGLDMLILNHITQTSLSLFHDDIHSVRRVMEVNFLSYVVMSTAALPMLKQSNGSIAVISSLAGKMTQPMIAPYSASKFALDGFFSTIRTELYITKVNVSITLCVLGLIDTETAMKEISGIINAQASPKEECALEIIKGTALRKSEVYYDKSPLTPILLGNPGRKIMEFFSLRYYNKDMFVSN | -1.766 | Down
5 | sp¦Q9D7X1¦KCTD4_MOUSE (protein, UniProt Q9D7X1 1-259, looked up) BTB/POZ domain-containing …: MERKIIRREKEREYEGRHNSVEDAEQGKNCKSTLMTLNVGGYLYITQKQTLTKYPDTFLEGIVNGKILCPFDADGHYFIDRDGLLFRHVLNFLRNGELLLPEGFRENQLLAQEAEFFQLKGLAEEVKSRWEKEQLTPRETTFLEITDNHDRSQGLRIFCNAPDFISKIKSRIVLVSKSRLDGFPEEFSVSSNIIQFKYFIKSENGTRLVLKEDNTFVCTLETLKFEAIMMALKCGFRLLTSLDCSKGSIVHSDALHFIK | -1.758 | Down
